Laboratory results reported in the supplement of paper PMC10065799, “High-throughput profiling of sequence recognition by tyrosine kinases and SH2 domains using bacterial peptide display” (eLife, 2023).

The sequences below were run against Hck (UniProt P08631) (assay: phosphorylation enrichment, bacterial display (enrichment ratio); higher = better substrate or ligand; peptides without Tyr show the background).
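Also: 11-residue human phosphosite peptides and single-mutation variants displayed on the E. coli surface, counted by deep sequencing, each peptide's frequency after selection divided by its frequency in the unselected input library; frequency after pTyr selection over input frequency; kinase dosed for 20-30% of maximal phosphorylation in three min.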

Sequence of Hck (P08631 whole entry, looked up): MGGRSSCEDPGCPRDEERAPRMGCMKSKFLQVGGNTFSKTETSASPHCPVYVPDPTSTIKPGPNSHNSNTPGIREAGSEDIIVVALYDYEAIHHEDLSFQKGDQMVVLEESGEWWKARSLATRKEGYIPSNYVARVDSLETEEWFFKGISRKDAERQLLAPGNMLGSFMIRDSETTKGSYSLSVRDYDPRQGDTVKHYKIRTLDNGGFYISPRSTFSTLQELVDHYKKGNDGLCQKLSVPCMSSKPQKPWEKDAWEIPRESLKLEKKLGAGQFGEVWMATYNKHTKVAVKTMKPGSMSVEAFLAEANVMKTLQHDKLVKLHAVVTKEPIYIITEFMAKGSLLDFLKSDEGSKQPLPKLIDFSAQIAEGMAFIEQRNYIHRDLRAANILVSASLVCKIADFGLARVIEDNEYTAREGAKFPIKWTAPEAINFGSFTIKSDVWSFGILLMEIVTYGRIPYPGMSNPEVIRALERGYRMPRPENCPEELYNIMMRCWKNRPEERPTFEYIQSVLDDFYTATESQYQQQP

| Sequence | phosphorylation enrichment |
| --- | --- |
| VLPIDYFFPPQ [AR_Y552_YF] | 0.604 |
| GRTNIYKNKKD [SLC26A3_Y520] | 0.447 |
| RLLRGYDQSAF [HLA-C_Y137_YF] | 0.439 |
| RPSELYYSKIG [SMG1_Y2253] | 11.3 |
| VTQEQYELHCE [CBL_Y368_Y371H] | 0.479 |
| KWHREYNSKFV [RICTOR_Y835_YF] | 0.371 |
| SGRSGYCLGTR [SCO1_Y60_P58S] | 0.348 |
| QADVTYVNTQL [MERTK_Y872_I871T] | 0.518 |
| GPIIRYDLGGA [CYP11B1_Y81_F79I] | 0.384 |
| IIGNGYFFRVF [MYBPC3_Y1135_YF] | 0.33 |
| TTSQPYRCLCS [USH2A_Y534] | 0.523 |
| DLDATYRPMYS [JUP_Y701_M697L] | 0.6 |
| WIGRKYKKVRF [F8_Y442_R437W] | 0.546 |
| DLDTEYGSGYP [RNASEH2A_Y206_D205E] | 0.546 |
| AGRSGYDNREI [BCL2_Y9_T7S] | 0.441 |
| SFCFRYCCAAR [SUMF1_Y344_R345C_YF] | 0.436 |
| AGTILYHAHLD [ASS1_Y291] | 0.523 |
| ALWYIYLHTRS [ENG_Y614_S615L] | 0.384 |
| FNDSAYNQQLI [ZPLD1_Y198_T197A_YF] | 0.455 |
| ETDTRYFDEEF [AKT1_Y437] | 0.665 |
| LDVDVYGPSVP [NUBPL_Y109] | 1.77 |
| LTELGYSFVTT [ACTA1_Y200_R198L] | 1.9 |
| FPKARYHWLVL [APTX_Y214_YF] | 0.53 |
| SLDLSYYHTSS [EMD_Y181_P183H] | 0.554 |
| LVRAFYCERRR [CARD11_Y970] | 1.14 |
| RPFFLYVAFHD [SGSH_Y174] | 0.58 |
| RRNTFYASIAK [ACADM_Y353_YF] | 0.463 |
| ISGLKYPVSQQ [BTK_Y375_R372G] | 0.448 |
| VLALWYFFLTH [ZDHHC23_Y127_YF] | 0.682 |

These sequences were tested against Jak2 (UniProt O60674) in the same assay as above.
Sequence of Jak2 (O60674 whole entry, looked up): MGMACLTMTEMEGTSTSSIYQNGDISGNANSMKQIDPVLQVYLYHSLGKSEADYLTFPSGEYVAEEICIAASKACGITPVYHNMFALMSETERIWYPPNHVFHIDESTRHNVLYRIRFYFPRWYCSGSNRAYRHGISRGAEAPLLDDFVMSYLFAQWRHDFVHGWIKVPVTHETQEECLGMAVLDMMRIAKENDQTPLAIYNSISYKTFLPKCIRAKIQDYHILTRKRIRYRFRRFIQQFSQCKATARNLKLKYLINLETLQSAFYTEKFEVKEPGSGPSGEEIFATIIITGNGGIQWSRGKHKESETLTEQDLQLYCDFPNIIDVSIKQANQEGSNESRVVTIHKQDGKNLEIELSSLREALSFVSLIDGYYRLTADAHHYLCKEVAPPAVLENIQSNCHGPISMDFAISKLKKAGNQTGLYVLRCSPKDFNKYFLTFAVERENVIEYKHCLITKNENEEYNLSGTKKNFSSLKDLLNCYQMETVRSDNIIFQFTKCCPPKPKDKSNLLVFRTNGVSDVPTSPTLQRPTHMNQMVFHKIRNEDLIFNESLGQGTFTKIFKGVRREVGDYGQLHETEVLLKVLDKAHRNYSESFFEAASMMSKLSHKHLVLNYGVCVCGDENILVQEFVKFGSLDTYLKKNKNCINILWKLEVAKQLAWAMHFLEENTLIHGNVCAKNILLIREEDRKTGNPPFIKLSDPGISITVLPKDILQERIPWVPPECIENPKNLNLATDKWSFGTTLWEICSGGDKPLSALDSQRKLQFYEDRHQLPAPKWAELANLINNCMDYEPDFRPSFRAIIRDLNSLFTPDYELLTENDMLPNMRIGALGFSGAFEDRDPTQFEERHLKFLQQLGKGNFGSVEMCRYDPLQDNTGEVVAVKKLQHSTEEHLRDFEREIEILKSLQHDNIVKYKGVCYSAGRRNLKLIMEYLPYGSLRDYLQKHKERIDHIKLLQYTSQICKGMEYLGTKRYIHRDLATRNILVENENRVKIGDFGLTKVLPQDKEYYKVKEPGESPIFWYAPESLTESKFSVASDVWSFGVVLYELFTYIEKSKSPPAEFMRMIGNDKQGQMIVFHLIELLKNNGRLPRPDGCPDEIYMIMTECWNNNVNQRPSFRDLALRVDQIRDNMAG

| Sequence | phosphorylation enrichment |
| --- | --- |
| VLPIDYFFPPQ [AR_Y552_YF] | 0.969 |
| GRTNIYKNKKD [SLC26A3_Y520] | 0.66 |
| RLLRGYDQSAF [HLA-C_Y137_YF] | 0.628 |
| RPSELYYSKIG [SMG1_Y2253] | 1.06 |
| VTQEQYELHCE [CBL_Y368_Y371H] | 1.1 |
| KWHREYNSKFV [RICTOR_Y835_YF] | 0.581 |
| SGRSGYCLGTR [SCO1_Y60_P58S] | 0.617 |
| QADVTYVNTQL [MERTK_Y872_I871T] | 0.703 |
| GPIIRYDLGGA [CYP11B1_Y81_F79I] | 0.626 |
| IIGNGYFFRVF [MYBPC3_Y1135_YF] | 0.956 |
| TTSQPYRCLCS [USH2A_Y534] | 0.931 |
| DLDATYRPMYS [JUP_Y701_M697L] | 0.588 |
| WIGRKYKKVRF [F8_Y442_R437W] | 0.571 |
| DLDTEYGSGYP [RNASEH2A_Y206_D205E] | 1.17 |
| AGRSGYDNREI [BCL2_Y9_T7S] | 0.52 |
| SFCFRYCCAAR [SUMF1_Y344_R345C_YF] | 1.02 |
| AGTILYHAHLD [ASS1_Y291] | 0.495 |
| ALWYIYLHTRS [ENG_Y614_S615L] | 1.09 |
| FNDSAYNQQLI [ZPLD1_Y198_T197A_YF] | 0.5 |
| ETDTRYFDEEF [AKT1_Y437] | 1.37 |
| LDVDVYGPSVP [NUBPL_Y109] | 0.829 |
| LTELGYSFVTT [ACTA1_Y200_R198L] | 1.93 |
| FPKARYHWLVL [APTX_Y214_YF] | 0.772 |
| SLDLSYYHTSS [EMD_Y181_P183H] | 1.71 |
| LVRAFYCERRR [CARD11_Y970] | 0.705 |
| RPFFLYVAFHD [SGSH_Y174] | 1.54 |
| RRNTFYASIAK [ACADM_Y353_YF] | 0.511 |
| ISGLKYPVSQQ [BTK_Y375_R372G] | 0.516 |
| VLALWYFFLTH [ZDHHC23_Y127_YF] | 2.27 |

What follows are sequences tested against MERTK (UniProt Q12866) in the same assay as above.
Sequence of MERTK (Q12866 whole entry, looked up): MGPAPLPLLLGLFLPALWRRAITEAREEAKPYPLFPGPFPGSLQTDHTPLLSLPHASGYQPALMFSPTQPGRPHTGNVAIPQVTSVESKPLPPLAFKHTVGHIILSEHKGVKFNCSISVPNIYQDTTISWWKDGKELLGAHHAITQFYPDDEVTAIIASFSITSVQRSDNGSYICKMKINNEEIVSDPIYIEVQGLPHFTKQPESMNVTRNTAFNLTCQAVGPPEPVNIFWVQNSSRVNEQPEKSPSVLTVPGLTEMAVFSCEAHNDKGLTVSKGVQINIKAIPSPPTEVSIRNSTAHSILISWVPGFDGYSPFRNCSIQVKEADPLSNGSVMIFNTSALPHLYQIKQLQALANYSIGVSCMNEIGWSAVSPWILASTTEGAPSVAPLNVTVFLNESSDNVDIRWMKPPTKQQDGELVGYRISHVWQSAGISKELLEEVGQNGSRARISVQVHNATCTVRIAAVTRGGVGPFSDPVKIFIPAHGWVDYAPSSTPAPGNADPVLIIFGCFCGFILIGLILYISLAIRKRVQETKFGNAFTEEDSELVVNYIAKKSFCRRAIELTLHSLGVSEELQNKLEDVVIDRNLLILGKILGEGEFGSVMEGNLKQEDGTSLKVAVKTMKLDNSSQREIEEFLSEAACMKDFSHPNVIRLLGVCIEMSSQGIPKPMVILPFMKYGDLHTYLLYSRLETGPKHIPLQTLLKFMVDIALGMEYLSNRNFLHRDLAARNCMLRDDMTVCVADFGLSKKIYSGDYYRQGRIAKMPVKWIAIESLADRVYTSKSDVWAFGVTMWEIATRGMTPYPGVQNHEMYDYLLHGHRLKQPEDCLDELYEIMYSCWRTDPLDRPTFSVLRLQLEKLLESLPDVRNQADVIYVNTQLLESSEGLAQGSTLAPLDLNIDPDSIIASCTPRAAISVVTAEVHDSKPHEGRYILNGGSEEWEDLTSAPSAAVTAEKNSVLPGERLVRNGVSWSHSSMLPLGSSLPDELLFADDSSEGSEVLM

| Sequence | phosphorylation enrichment |
| --- | --- |
| VLPIDYFFPPQ [AR_Y552_YF] | 0.459 |
| GRTNIYKNKKD [SLC26A3_Y520] | 0.43 |
| RLLRGYDQSAF [HLA-C_Y137_YF] | 0.443 |
| RPSELYYSKIG [SMG1_Y2253] | 20.1 |
| VTQEQYELHCE [CBL_Y368_Y371H] | 0.37 |
| KWHREYNSKFV [RICTOR_Y835_YF] | 0.37 |
| SGRSGYCLGTR [SCO1_Y60_P58S] | 0.55 |
| QADVTYVNTQL [MERTK_Y872_I871T] | 0.522 |
| GPIIRYDLGGA [CYP11B1_Y81_F79I] | 0.477 |
| IIGNGYFFRVF [MYBPC3_Y1135_YF] | 0.28 |
| TTSQPYRCLCS [USH2A_Y534] | 0.781 |
| DLDATYRPMYS [JUP_Y701_M697L] | 0.386 |
| WIGRKYKKVRF [F8_Y442_R437W] | 0.527 |
| DLDTEYGSGYP [RNASEH2A_Y206_D205E] | 0.379 |
| AGRSGYDNREI [BCL2_Y9_T7S] | 0.366 |
| SFCFRYCCAAR [SUMF1_Y344_R345C_YF] | 0.445 |
| AGTILYHAHLD [ASS1_Y291] | 0.561 |
| ALWYIYLHTRS [ENG_Y614_S615L] | 0.352 |
| FNDSAYNQQLI [ZPLD1_Y198_T197A_YF] | 0.297 |
| ETDTRYFDEEF [AKT1_Y437] | 0.527 |
| LDVDVYGPSVP [NUBPL_Y109] | 0.498 |
| LTELGYSFVTT [ACTA1_Y200_R198L] | 1.12 |
| FPKARYHWLVL [APTX_Y214_YF] | 0.731 |
| SLDLSYYHTSS [EMD_Y181_P183H] | 0.578 |
| LVRAFYCERRR [CARD11_Y970] | 0.902 |
| RPFFLYVAFHD [SGSH_Y174] | 0.442 |
| RRNTFYASIAK [ACADM_Y353_YF] | 0.474 |
| ISGLKYPVSQQ [BTK_Y375_R372G] | 0.474 |
| VLALWYFFLTH [ZDHHC23_Y127_YF] | 0.882 |

The sequences below were run on c-Abl (mouse) in the same assay as above.

| Sequence | phosphorylation enrichment |
| --- | --- |
| VLPIDYFFPPQ [AR_Y552_YF] | 0.502 |
| GRTNIYKNKKD [SLC26A3_Y520] | 0.721 |
| RLLRGYDQSAF [HLA-C_Y137_YF] | 0.708 |
| RPSELYYSKIG [SMG1_Y2253] | 1.01 |
| VTQEQYELHCE [CBL_Y368_Y371H] | 0.791 |
| KWHREYNSKFV [RICTOR_Y835_YF] | 0.555 |
| SGRSGYCLGTR [SCO1_Y60_P58S] | 0.514 |
| QADVTYVNTQL [MERTK_Y872_I871T] | 1.11 |
| GPIIRYDLGGA [CYP11B1_Y81_F79I] | 0.518 |
| IIGNGYFFRVF [MYBPC3_Y1135_YF] | 0.692 |
| TTSQPYRCLCS [USH2A_Y534] | 1.07 |
| DLDATYRPMYS [JUP_Y701_M697L] | 0.486 |
| WIGRKYKKVRF [F8_Y442_R437W] | 0.676 |
| DLDTEYGSGYP [RNASEH2A_Y206_D205E] | 0.727 |
| AGRSGYDNREI [BCL2_Y9_T7S] | 0.551 |
| SFCFRYCCAAR [SUMF1_Y344_R345C_YF] | 0.7 |
| AGTILYHAHLD [ASS1_Y291] | 0.509 |
| ALWYIYLHTRS [ENG_Y614_S615L] | 0.733 |
| FNDSAYNQQLI [ZPLD1_Y198_T197A_YF] | 0.485 |
| ETDTRYFDEEF [AKT1_Y437] | 0.875 |
| LDVDVYGPSVP [NUBPL_Y109] | 1.4 |
| LTELGYSFVTT [ACTA1_Y200_R198L] | 1.51 |
| FPKARYHWLVL [APTX_Y214_YF] | 0.647 |
| SLDLSYYHTSS [EMD_Y181_P183H] | 0.603 |
| LVRAFYCERRR [CARD11_Y970] | 0.597 |
| RPFFLYVAFHD [SGSH_Y174] | 1.24 |
| RRNTFYASIAK [ACADM_Y353_YF] | 0.509 |
| ISGLKYPVSQQ [BTK_Y375_R372G] | 0.392 |
| VLALWYFFLTH [ZDHHC23_Y127_YF] | 1.01 |
